{
  "source": "paper PMC5340378",
  "about": "“The DRF motif of CXCR6 as chemokine receptor adaptation to adhesion” (PLoS ONE, 2017)",
  "binders": {"B1": {"name": "human CXCL16-Fc fusion protein (Fc fusion, UniProt Q9H2A7 30-205, looked up)", "chain": "NEGSVTGSCYCGKRISSDSPPSVQFMNRLRKHLRAYHRCLYYTRFQLLSWSVCGGNKDPWVQELMSCLDLKECGHAYSGIVAHQKHLLPTSPPISQASEGASSDIHTPAQMLLSTLQSTQRPTLPVGSLSSDKELTRPNETTIHTAGHSLAAGPEAGENQKQPEKNAGPTARTSAT"}},
  "key": {"[1]": {"biological_target": "human CXCR6[DRF] (CXC-chemokine receptor 6, wild type with the DRF motif) (human, UniProt O00574 1-342)", "assay": "cell-based or functional assay"}, "[2]": {"biological_target": "T1, human CXCR6[DRY] (DRF motif mutated to DRY) (human, UniProt O00574 1-342, DRF to DRY (F128^3.51))", "T1 sequence (looked up)": "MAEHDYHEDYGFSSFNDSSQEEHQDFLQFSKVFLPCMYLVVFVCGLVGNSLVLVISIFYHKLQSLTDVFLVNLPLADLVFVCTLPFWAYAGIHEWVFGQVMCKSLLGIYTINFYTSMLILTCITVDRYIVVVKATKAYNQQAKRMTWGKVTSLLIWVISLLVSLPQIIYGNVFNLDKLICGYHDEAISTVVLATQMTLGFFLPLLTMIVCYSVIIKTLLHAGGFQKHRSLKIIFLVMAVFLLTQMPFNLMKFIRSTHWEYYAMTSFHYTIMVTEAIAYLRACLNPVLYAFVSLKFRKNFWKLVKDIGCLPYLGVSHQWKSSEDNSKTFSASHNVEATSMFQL", "assay": "cell-based or functional assay"}},
  "data": [
    {"binder": "B1", "values": [
      {"measurement": "adhesion of THP-1 cells expressing the receptor to immobilized CXCL16-Fc for 30 min, normalized to cells adhering to anti-human-Fc", "setting": "[1]", "result": "~4", "unit": "fold"},
      {"measurement": "adhesion of THP-1 cells to immobilized CXCL16-Fc for 5, 15 and 30 min, CXCR6[DRF] cells compared to CXCR6[DRY] cells", "setting": "[1]", "result": 2, "unit": "fold"},
      {"measurement": "adhesion of THP-1 cells expressing the receptor to immobilized CXCL16-Fc for 30 min, normalized to cells adhering to anti-human-Fc", "setting": "[2]", "result": "~4", "unit": "fold"}
    ]}
  ]
}
